Results published in patent US9580733B2, “Methods of producing 6-carbon chemicals via methyl-ester shielded carbon chain elongation” (INVISTA North America S.á r.l., priority 2012, dated 2017).

Assay: Carboxylate reductase activity assay, adipate to adipate semialdehyde
Format: biochemical
Details: enhanced by gene product of sfp, 2 mM adipate, room temperature, 20 min, vs empty vector control, FIG. 10
Protocol: A nucleotide sequence encoding a HIS-tag was added to the genes from Segniliparus rugosus and Segniliparus rotundus that encode the carboxylate reductases of SEQ ID NOs: 5 and 7, respectively (see FIGS. 7C and 7E), such that N-terminal HIS tagged carboxylate reductases could be produced. Each of the modified genes was cloned into a pET Duet expression vector along with a sfp gene encoding a HIS-tagged phosphopantetheine transferase from Bacillus subtilis, both under the T7 promoter. Each expression vector was transformed into a BL21[DE3] E. coli host and the resulting recombinant E. coli strains were cultivated at 37° C. in a 250 mL shake flask culture containing 50 mL LB media and antibiotic selection pressure, with shaking at 230 rpm. Each culture was induced overnight at 37° C. using an auto-induction media.
The pellet from each induced shake flask culture was harvested via centrifugation. Each pellet was resuspended and lysed via sonication, and the cell debris was separated from the supernatant via centrifugation. […]
Enzyme activity assays (i.e., from adipate to adipate semialdehyde) were performed in triplicate in a buffer composed of a final concentration of 50 mM HEPES buffer (pH=7.5), 2 mM adipate, 10 mM MgCl2, 1 mM ATP and 1 mM NADPH. […] The consumption of NADPH was monitored by absorbance at 340 nm.

B1: SEQ ID NO 5: Segniliparus rugosus carboxylate reductase (Genbank Accession No. EFV11917.1) (protein, listed as Segniliparus rugosus)
chain: MGDGEERAKRFFQRIGELSATDPQFAAAAPDPAVVEAVSDPSLSFTRYLDTLMRGYAERPALAHRVGAGYETISYGELWARVGAIAAAWQADGLAPGDFVATVGFTSPDYVAVDLAAARSGLVSVPLQAGASLAQLVGILEETEPKVLAASASSLEGAVACALAAPSVQRLVVFDLRGPDASESAADERRGALADAEEQLARAGRAVVVETLADLAARGEALPEAPLFEPAEGEDPLALLIYTSGSTGAPKGAMYSQRLVSQLWGRTPVVPGMPNISLHYMPLSHSYGRAVLAGALSAGGTAHFTANSDLSTLFEDIALARPTFLALVPRVCEMLFQESQRGQDVAELRERVLGGRLLVAVCGSAPLSPEMRAFMEEVLGFPLLDGYGSTEALGVMRNGIIQRPPVIDYKLVDVPELGYRTTDKPYPRGELCIRSTSLISGYYKRPEITAEVFDAQGYYKTGDVMAEIAPDHLVYVDRSKNVLKLSQGEFVAVAKLEAAYGTSPYVKQIFVYGNSERSFLLAVVVPNAEVLGARDQEEAKPLIAASLQKIAKEAGLQSYEVPRDFLIETEPFTTQNGLLSEVGKLLRPKLKARYGEALEARYDEIAHGQADELRALRDGAGQRPVVETVVRAAVAISGSEGAEVGPEANFADLGGDSLSALSLANLLHDVFEVEVPVRIIIGPTASLAGIAKHIEAERAGASAPTAASVHGAGATRIRASELTLEKFLPEDLLAAAKGLPAADQVRTVLLTGANGWLGRFLALEQLERLARSGQDGGKLICLVRGKDAAAARRRIEETLGTDPALAARFAELAEGRLEVVPGDVGEPKFGLDDAAWDRLAEEVDVIVHPAALVNHVLPYHQLFGPNVVGTAEIIRLAITAKRKPVTYLSTVAVAAGVEPSSFEEDGDIRAVVPERPLGDGYANGYGNSKWAGEVLLREAHELVGLPVAVFRSDMILAHTRYTGQLNVPDQFTRLVLSLLATGIAPKSFYQQGAAGERQRAHYDGIPVDFTAEAITTLGAEPSWFDGGAGFRSFDVFNPHHDGVGLDEFVDWLIEAGHPISRIDDHKEWFARFETAVRGLPEAQRQHSLLPLLRAYSFPHPPVDGSVYPTGKFQGAVKAAQVGSDHDVPHLGKALIVKYADDLKALGLL
carboxylate reductase activity for converting adipate to adipate semialdehyde (consumption of NADPH, absorbance at 340 nm): accepted adipate as substrate
